This assay addresses T1, PPARα (Homo sapiens, UniProt Q07869).
T1 construct: expressed in transfected cells; host or cells: CV-1 (African green monkey kidney)
T1 sequence (Q07869 1-468): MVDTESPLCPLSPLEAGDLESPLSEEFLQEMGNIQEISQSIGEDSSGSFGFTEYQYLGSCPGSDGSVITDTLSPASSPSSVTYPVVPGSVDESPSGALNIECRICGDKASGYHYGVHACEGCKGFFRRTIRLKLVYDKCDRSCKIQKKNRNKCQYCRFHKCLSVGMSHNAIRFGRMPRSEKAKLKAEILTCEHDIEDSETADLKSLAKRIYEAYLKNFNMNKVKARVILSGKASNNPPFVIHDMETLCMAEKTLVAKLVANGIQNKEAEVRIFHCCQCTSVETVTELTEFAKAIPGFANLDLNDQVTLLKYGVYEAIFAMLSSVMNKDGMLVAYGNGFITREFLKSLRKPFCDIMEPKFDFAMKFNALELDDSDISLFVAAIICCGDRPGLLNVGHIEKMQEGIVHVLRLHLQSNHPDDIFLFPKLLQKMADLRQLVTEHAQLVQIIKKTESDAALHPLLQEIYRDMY
T1 sequence (P19793 1-462 partner): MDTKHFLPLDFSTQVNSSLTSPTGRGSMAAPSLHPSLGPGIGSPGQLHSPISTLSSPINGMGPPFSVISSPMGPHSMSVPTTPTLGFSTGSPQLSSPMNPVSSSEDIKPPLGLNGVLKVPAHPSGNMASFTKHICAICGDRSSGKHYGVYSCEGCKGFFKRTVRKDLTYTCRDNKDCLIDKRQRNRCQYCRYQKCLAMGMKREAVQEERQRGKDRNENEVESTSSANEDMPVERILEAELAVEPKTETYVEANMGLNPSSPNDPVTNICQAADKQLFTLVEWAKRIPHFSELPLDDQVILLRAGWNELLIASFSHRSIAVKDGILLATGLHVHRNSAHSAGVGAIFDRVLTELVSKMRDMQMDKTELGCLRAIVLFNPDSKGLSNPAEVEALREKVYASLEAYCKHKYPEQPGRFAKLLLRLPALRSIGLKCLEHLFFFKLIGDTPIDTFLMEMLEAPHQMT
Briefly: Reporter gene assay, ERRγ3 coexisted with PPARα, pGVP2-PPRE1 in CV-1 cells. The assay is classed as cell-based. The conditions noted are these: 10^−5 M bezafibrate, FIG. 24. The method, then:
Transfection was performed as follows: CV-1 cells were resuspended in DMEM supplemented with 10% fetal bovine serum, 2000 U/l of penicillin G, and 100 mg/l of streptomycin to a concentration of 2×10^5 cells/2.5 ml. This was then seeded to a 6-well plate at 2.5 ml per well, and incubated for 18-24 hours in a CO2 incubator at 37° C. and 5% CO2. 1 μg of each of the expression plasmids for the transcription factors, the luciferase reporter plasmid, and another luciferase reporter plasmid used for normalization of the measured values (pRL-TK), were dissolved in Opti-MEM (Gibco BRL), to a total of 150 μl. […] Luciferase activity was measured using the Dual-Luciferase™ Reporter Assay System (Promega). […] The protocol for measurement was as follows: 50 μl of Luciferase Assay Reagent II was added to each well, stirred for 0.3 seconds, and measured for one second. 50 μl of Stop&Glo™ Reagent was then added, stirred for 0.3 seconds, and measured for one second. The measured values for firefly luciferase activity were corrected by dividing by the value for the Renilla luciferase activity, the internal control. Average values and standard errors were calculated from triplicate samples.
The effect of ligands on the function of ERRγ3 in enhancing the transcriptional activation function of peroxisome proliferator activated receptor (PPAR) α, β, or γ was evaluated using the reporter gene assay (FIG. 24). […]
On the technique in general: A reporter such as luciferase makes a cellular process visible.

B1: ERRγ3: novel ERRγ isoform, nuclear receptor protein of 396 amino acids (SEQ ID NO: 2) lacking part of the DNA binding domain (protein, listed as Homo sapiens)
chain: MSNKDRHIDSSCSSFIKTEPSSPASLTDSVNHHSPGGSSDASGSYSSTMNGHQNGLDSPPLYPSAPILGGSGPVRKLYDDCSSTIVEDPQTKCEYMLNSMPKRLCLVCGDIASGYHYGVASCEACKAFFKRTIQGVRLDRVRGGRQKYKRRIDAENSPYLNPQLAQPAKKPYNKIVSHLLVAEPEKIYAMPDPTVPDSDIKALTTLCDLADRELVVIIGWAKHIPGFSTLSLADQMSLLQSAWMEILILGVVYRSLSFEDELVYADDYIMDEDQSKLAGLLDLNNAILQLVKKYKSMKLEKEEFVTLKAIALANSDSMHIEDVEAVQKLQDVLHEALQDYEAGQHMEDPRRAGKMLMTLPLLRQTSTKAVQHFYNIKLEGKVPMHKLFLEMLEAKV
With B1, the “modifying effect on the transcriptional stimulation activity of PPARα” value is “did not show any significant modifying effect”.

The values are drawn from patent publication US20060148030A1, “Nuclear receptor err y 3” (FUJISAWA PHARMACEUTICAL CO., LTD, priority 2002, published 2006).
